According to patent publication US20180185504A1 (Regeneron, published 2018):

T1: mfPRLR.mmh (soluble monomeric macaca fascicularis PRLR) (macaca fascicularis)
T1 construct: soluble monomeric PRLR protein; also called macaca fascicularis (mf) PRLR.mmh; monkey PRLR
T1 chain: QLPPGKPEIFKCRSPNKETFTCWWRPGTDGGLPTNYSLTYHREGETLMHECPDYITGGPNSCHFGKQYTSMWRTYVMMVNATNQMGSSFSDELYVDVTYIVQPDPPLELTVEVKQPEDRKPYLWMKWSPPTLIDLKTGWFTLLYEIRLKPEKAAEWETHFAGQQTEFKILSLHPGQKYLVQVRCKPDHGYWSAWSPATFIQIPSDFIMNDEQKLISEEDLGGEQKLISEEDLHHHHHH

T2: hPRLR.mmh (soluble monomeric human PRLR) (human)
T2 construct: soluble monomeric PRLR protein
T2 chain: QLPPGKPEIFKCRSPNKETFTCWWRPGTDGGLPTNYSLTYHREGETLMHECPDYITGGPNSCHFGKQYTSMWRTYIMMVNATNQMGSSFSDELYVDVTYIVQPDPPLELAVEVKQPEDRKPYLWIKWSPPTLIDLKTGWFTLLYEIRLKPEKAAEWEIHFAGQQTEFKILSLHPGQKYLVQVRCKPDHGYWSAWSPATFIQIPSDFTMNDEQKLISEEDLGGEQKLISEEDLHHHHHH

T3: mouse PRLR construct with an HA tag on HEK293/mPRLR cells (mouse, UniProt Q08501 20-608)
T3 construct: whole, on cells; stably transfected into HEK293
T3 sequence (looked up): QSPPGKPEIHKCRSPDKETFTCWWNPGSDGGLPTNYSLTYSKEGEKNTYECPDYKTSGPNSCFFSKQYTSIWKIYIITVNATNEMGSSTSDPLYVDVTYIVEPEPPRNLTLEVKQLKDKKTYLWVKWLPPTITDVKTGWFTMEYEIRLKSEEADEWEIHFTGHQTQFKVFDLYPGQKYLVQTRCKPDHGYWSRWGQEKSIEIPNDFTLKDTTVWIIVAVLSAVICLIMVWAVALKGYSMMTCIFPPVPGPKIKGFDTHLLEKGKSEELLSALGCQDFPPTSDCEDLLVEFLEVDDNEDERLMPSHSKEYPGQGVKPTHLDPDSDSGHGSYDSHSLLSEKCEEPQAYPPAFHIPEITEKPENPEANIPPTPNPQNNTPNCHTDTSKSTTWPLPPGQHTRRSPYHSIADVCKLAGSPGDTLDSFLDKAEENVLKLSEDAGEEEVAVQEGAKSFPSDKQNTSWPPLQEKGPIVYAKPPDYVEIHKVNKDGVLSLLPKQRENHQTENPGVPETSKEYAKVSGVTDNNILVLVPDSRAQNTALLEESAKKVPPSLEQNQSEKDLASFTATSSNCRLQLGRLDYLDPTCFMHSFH


Assays:
[1] = biological target: T1, mfPRLR.mmh (soluble monomeric macaca …); experiment: SPR (Biacore), antibody capture, 37 C
Description: (§1) Measurements were conducted on a T200 Biacore instrument. Kinetic association (kₐ) and dissociation (kd) rate constants were determined by processing and fitting the data to a 1:1 binding model using Scrubber 2.0 curve fitting software.

[2] = biological target: T2, hPRLR.mmh (soluble monomeric human PRLR); experiment: SPR (Biacore), antibody capture, 37 C
Description: as §1

[3] = biological target: T3, mouse PRLR construct with an HA tag on …; experiment: FACS on HEK293/mPRLR cells

Binder | Kd [1] [nM] | T 1/2 [1] [min] | koff [1] [s⁻¹] | kon [1] [M⁻¹ s⁻¹] | Kd [2] [nM] | T 1/2 [2] [min] | koff [2] [s⁻¹] | kon [2] [M⁻¹ s⁻¹] | FACS Cell Binding (Fold Above Background) [3] [fold]
H1H6797P (antibody, human IgG1, V domains shown, human IgG1 Fc (H1H)) VH: EVQLVESGGGLVQPGGSLRLSCIVSGFTFSGSWMSWVRQLPGKGLEWVANIKEDGSDSYYVDSVEGRFTISRDNAKSSLYLQMNSLRVDDTAVYFCARARTVPLHYWGQGTLVTVSS VL: DIQMTQSPSTLSASVGDRVTITCRASQSINIWLAWYQQKPGKAPKLLIYRASYLESGVPSSFAGGGSGTEFTLTISSLQPDDFGTYYCQHYNSYPFTFGQGTKLEIK | 9.9 | 1 | 0.00906 | 914000 | 6.37 | 1 | 0.00822 | 1.29e+06 | 2
H1H6792P (antibody, human IgG1, V domains shown, human IgG1 Fc (H1H)) VH: EVQLVESGGGLVQPGRSLRLSCAASGFTLDDHAVHWVRQAPGKGLEWVSGISWNSVYIDYADSVKGRFTIFRDNAKNSLYLQMNSLRAEDTAFYYCARDIEGARDYWGQGTLVTVSS VL: DIQMTQSPSSLSASVGDRVTITCRASQGIRNDLGWYQQKPGKAPKRLIYAASSLQSGVPSRFSGSGYGTEFTLTISSLQPEDFAPYYCLQHNSYPLTFGGGTKVEIK | 9.37 | 4 | 0.00286 | 305000 | 5.27 | 5 | 0.00229 | 435000 | 3
H1H6804P (antibody, human IgG1, V domains shown, human IgG1 Fc (H1H)) VH: QVTLKESGPVLVKPTQTLSLTCTVSGFSLSDAGMGVSWIRQPPGKALEWLAHIFSNDGKSYSTSLKSRLTISKDTSKRQVVLTMTNMDPVDTATYYCARIRTGTYSLYLDYWGQGTLVTVSS VL: DIQMTQSPSSLSASVGDRVTITCRASQSINSYLNWYQQKPGKAPKLLLYFASSLQSGVPSRFSGSGSGTDFTLTISSLQPEDFASYYCQESYSTPWTFGQGTKVEIK | 9.35 | 3 | 0.00426 | 455000 | 6.34 | 3 | 0.00385 | 607000 | 1
H1H6795P (antibody, human IgG1, V domains shown, human IgG1 Fc (H1H)) VH: QVQLVQSGAEVKKPGASVKVSCKASGYTFGTSGITWVRQAPGQGLEWMGWSSAYNGKTDYAQKFQDRVTMTTDTSTTTGYMEMRSLTSDDTAVYYCTTVVRRPFDFWGQGTLVTVSS VL: DIQMTQSPSSLSASVGDRVTITCRASQDINNFLAWFQQKPGKAPKSLIYAASSLQSGVPSKFSGGGSGTDFALTISSLQPEDFATYYCQQYSSYPITFGQGTRLEIK | 6.16 | 2 | 0.00599 | 973000 | 3.81 | 2 | 0.0052 | 1.36e+06 | 1
H1H6960N (antibody, human IgG1, V domains shown, also called H2M6960N) VH: EVQLVESGGGLVKPGGSLRLSCAASGITFSSYSMNWVRQAPGKGLEWVSSISTRSSLIHYADSVKGRFTISRDNAKNSLYLQMNSLRDEDTAVYYCARWDAAAAFDYWGQGTLVIVSS VL: DIQLTQSPSFLSASVGDRVTITCWASQGISSYLAWYQQKPGKAPKLLIYVASTLQSGVPSRFSGSGSGTEFTLTISSLQPEDFATYFCQQLNSYPLTFGGGTKVEIK | 14.9 | 9 | 0.00128 | 86400 | 16.2 | 5.8 | 0.00198 | 122000 | 1

The next binders have a lower Kd [1] than those just listed; values first:

Kd [1] [nM] | T 1/2 [1] [min] | koff [1] [s⁻¹] | kon [1] [M⁻¹ s⁻¹] | Kd [2] [nM] | T 1/2 [2] [min] | koff [2] [s⁻¹] | kon [2] [M⁻¹ s⁻¹] | FACS Cell Binding (Fold Above Background) [3] [fold] | Binder
5 | 3 | 0.00361 | 723000 | 2.95 | 4 | 0.00317 | 1.07e+06 | 1 | H1H6774P (antibody, human IgG1, V domains shown, human IgG1 Fc (H1H)) VH: EVQLVESGGGLAQPGGSLRLSCVASGFTFSTYWMSWVRQAPGKGLDWVGNIKQDGSEQNYVDSVRGRFTISRDNAKNSLFLQMNSLRAEDTGVYYCATLLTKGDYWGQGTLVTVSS VL: DIQMTQSPSSLSASVGDSVTITCRASQDISNYLDWFQQKPGKAPKSLIYAASILQGGVPSRFSGSGYGTDFTLTISSLQPEDFATYYCRQYKTYPFTFGPGTKVDIK
0.448 | 32 | 0.000359 | 802000 | 0.31 | 34 | 0.000336 | 1.08e+06 | 2 | H1H6807P (antibody, V domains shown, human IgG1 Fc (H1H)) VH: QVQLVESGGGVVQPGRSLRLSCAASGFTFSDYNMHWVRQAPGKGLEWVAVIWYDGSNKHYADSVKGRFTISRDNSKNTLYLQMNSLRAEDTAVYYCARDGFTIFGMVLDYWGQGTLVTVSS VL: not shown
5.22 | 4 | 0.00321 | 615000 | 3.5 | 4 | 0.00329 | 940000 | 1 | H1H6790P (antibody, human IgG1, V domains shown, human IgG1 Fc (H1H)) VH: EVQLVESGGGLVQPGGSLRLSCAASGFTFSSYAMTWVRQAPGKGLEWVSAITGSVGNTYYADSVKGRFTISRDNSKNTLYLQMNSLGAEDTAEYYCAKGAGMTTNWYLDLWGRGTLVTVSS VL: DIVMTQSPDSLAVSLGARATINCKSSQSVLYSSNNQNYLTWYQQKPGQPPKLLIKWASTRESGVPDRFSGSGSGTDFTLTISSLQAEDVAVYYCQQYASSPYTFGQGTKLEIK
1.08 | 43 | 0.000267 | 247000 | 0.91 | 37 | 0.000309 | 339000 | 1 | H1H6781P (antibody, human IgG1, V domains shown, human IgG1 Fc (H1H)) VH: EVQLVESGGDLVQPGESLRLSCTASGFTFNSYEMNWVRQAPGKGLEWVSYISSSGGTKYYVDSVKGRFTISRDNAKKSLYLQMNSLRADDTALYYCARLNGVDVFDIWGQGTMVTVSS VL: DIQMTQSPSSLSASVGDRVTITCRASQDIFNYLAWFQQKPGKVPELLISAASTLQSGVPSRFSGSGSGTYFTLTISSLQPEDIATYYCQRYNSAPLTFGGGTKVEIK
2.71 | 4.5 | 0.00256 | 947000 | 1.11 | 9.4 | 0.00122 | 1.1e+06 | 2 | H1H6953N (antibody, human IgG1, V domains shown, also called H1M6953N) VH: EVQLLESGGGLVQPGGTLRLSCAASGFTFSAYAMSWVRQAPGKGLEWVSSINVRAGDTYYADSVKGRFTISRDNSKNTLFLLMNSLRAEDTAAYYCAKARYSSNWGFDFWGQGTLVTVSS VL: DIVMTQSPDSLTVSLGARTTINCQSSQTILHSSNNHNYLAWYQQKPGLPPKLLIYWSSTRESGVPDRFSGSGSGTDFTLTISSLQAEDVAIYYCQQYSNTPYTFGQGTKLEIN
4.74 | 9 | 0.0013 | 273000 | 3.91 | 7 | 0.00161 | 411000 | 1 | H1H6783P (antibody, human IgG1, V domains shown, human IgG1 Fc (H1H)) VH: QVQLQQSGPGLVKPSQTLSLTCAISGDSVSSNTFAWNWIRQSPSRGLEWLGRTYYRSKWYIDYAESVKSRITITPDTSKNQFSLQLNSVTPEDTALYYCAGGYTYAPRGAFDIWGQGTMVTVSS VL: not shown
0.982 | 9.6 | 0.0012 | 1.22e+06 | 0.607 | 12 | 0.00096 | 1.58e+06 | 1 | H1H6966N (antibody, human IgG1, V domains shown, also called H2M6966N) VH: QVQLVQSGAEVQKPGASVKVSCKVSGYTLTALSIHWVRQAPGKGLEWMGNFDPGDGETIHAQKFQGRVTMTGDTSTDTAYMELSSLRSEDTAVYYCVGVTFDYWGQGTLVTVSS VL: EIVMTQSPATLSVSPGERATLSCRASQSVASNLAWYQQKPGQAPRLLLYGASTRATGIPARFSGSGSGTEFTLTISSLQSEDFALYYCQHYNNWPLTFGGGTKVEIK
